Publication PMC8989981, “Negative feedback of SNRK to circ-SNRK regulates cardiac function post-myocardial infarction” (Cell Death and Differentiation, 2021)

Target: the molecule itself
Experiment: native gel or EMSA; Native-PAGE of total protein from NRCMs, blotted with anti-NOVA1

B1: NOVA1 (NOVA alternative splicing regulator 1) (natural protein, rat (endogenous in NRCMs), UniProt Q80WA4 1-474, looked up)
chain: MAAAPIQQNGTHTGVPIDLDPPDSRKRPLEAPPEAGSTKRTNTGEDGQYFLKVLIPSYAAGSIIGKGGQTIVQLQKETGATIKLSKSKDFYPGTTERVCLIQGTIEALNAVHGFIAEKIREMPQNVAKTEPVSILQPQTTVNPDRIKQVKIIVPNSTAGLIIGKGGATVKAIMEQSGAWVQLSQKPDGINLQERVVTVSGEPEQNRKAVELIIQKIQEDPQSGSCLNISYANVTGPVANSNPTGFPYANTAEVLPTAAAAAGLLGHANLAGVAAFPAVLSGFTGNDLVAITSALNTLASYGYNLNTLGLGLSQAAATGALAAAAASANPAAAAANLLATYASEASASGSTAGGTAGTFALGSLAAATAATNGYFGAASPLAASAILGTEKSTDGSKDVVEIAVPENLVGAILGKGGKTLVEYQELTGARIQISKKGEFVPGTRNRKVTITGTPAATQAAQYLITQRITYEQGVR
notes: NOVA1 (NOVA alternative splicing regulator 1), rat, as present in neonatal rat cardiomyocytes; also called protein NOVA1; source: endogenous, NRCMs (neonatal rat cardiomyocytes), in lysate / total protein
- stoichiometry N: 2
